Laboratory results from paper PMC4468220, “Defective Proteasome Delivery of Polyubiquitinated Proteins by Ubiquilin-2 Proteins Containing ALS Mutations” (PLoS ONE, 2015).

Columns and labels:
Experiment in all cases: pull-down; 4 μg GST protein with 2 μg HIS-S5a in 800μL 2% Chaps buffer (20mM Tris pH 8.0, 150mM NaCl, 2mM MgCl2, 10% glycerol, 2.0% Chaps), glutathione agarose beads, 2 hrs at room temperature; washes with PBS, 2% Tween-20, 200 mM KCl; blot for S5a
Conditions in all cases: both partners purified
[1] = target: T1, GST-ubiquilin-2 P497H (human, UniProt Q9UHD9 1-624, P497H)
T1 construct: ubiquilin-2, human, full-length cDNA, 624 aa, ALS-linked mutation P497H; pGST/His T1 vector; also called P497H mutation; source: E. coli BL21(DE3), purified (glutathione-agarose); not shown: GST, N-terminal, kept

[2] = target: T2, GST-ubiquilin-2 wild type (human, UniProt Q9UHD9 1-624)
T2 construct: ubiquilin-2, human, full-length cDNA, 624 aa; cloned downstream of GST in the pGST/His T1 vector; also called GST-fusion protein encoding WT ubiquilin-2; source: E. coli BL21(DE3), purified (glutathione-agarose); not shown: GST, N-terminal, kept

[3] = target: T3, GST-ubiquilin-2 P525S (human, UniProt Q9UHD9 1-624, P525S)
T3 construct: ubiquilin-2, human, full-length cDNA, 624 aa, ALS-linked mutation P525S; pGST/His T1 vector; also called P525S mutation; source: E. coli BL21(DE3), purified (glutathione-agarose); not shown: GST, N-terminal, kept

[4] = target: T4, GST-ubiquilin-2 P497S (human, UniProt Q9UHD9 1-624, P497S)
T4 construct: ubiquilin-2, human, full-length cDNA, 624 aa, ALS-linked mutation P497S; pGST/His T1 vector; also called P497S mutation; source: E. coli BL21(DE3), purified (glutathione-agarose); not shown: GST, N-terminal, kept

[5] = target: T5, GST-ubiquilin-2 P509S (human, UniProt Q9UHD9 1-624, P509S)
T5 construct: ubiquilin-2, human, full-length cDNA, 624 aa, ALS-linked mutation P509S; pGST/His T1 vector; also called P509S mutation; source: E. coli BL21(DE3), purified (glutathione-agarose); not shown: GST, N-terminal, kept

[6] = target: T6, GST-ubiquilin-2 P506T (human, UniProt Q9UHD9 1-624, P506T)
T6 construct: ubiquilin-2, human, full-length cDNA, 624 aa, ALS-linked mutation P506T; pGST/His T1 vector; also called P506T mutation; source: E. coli BL21(DE3), purified (glutathione-agarose); not shown: GST, N-terminal, kept
T6 sequence (Q9UHD9 whole entry P506T): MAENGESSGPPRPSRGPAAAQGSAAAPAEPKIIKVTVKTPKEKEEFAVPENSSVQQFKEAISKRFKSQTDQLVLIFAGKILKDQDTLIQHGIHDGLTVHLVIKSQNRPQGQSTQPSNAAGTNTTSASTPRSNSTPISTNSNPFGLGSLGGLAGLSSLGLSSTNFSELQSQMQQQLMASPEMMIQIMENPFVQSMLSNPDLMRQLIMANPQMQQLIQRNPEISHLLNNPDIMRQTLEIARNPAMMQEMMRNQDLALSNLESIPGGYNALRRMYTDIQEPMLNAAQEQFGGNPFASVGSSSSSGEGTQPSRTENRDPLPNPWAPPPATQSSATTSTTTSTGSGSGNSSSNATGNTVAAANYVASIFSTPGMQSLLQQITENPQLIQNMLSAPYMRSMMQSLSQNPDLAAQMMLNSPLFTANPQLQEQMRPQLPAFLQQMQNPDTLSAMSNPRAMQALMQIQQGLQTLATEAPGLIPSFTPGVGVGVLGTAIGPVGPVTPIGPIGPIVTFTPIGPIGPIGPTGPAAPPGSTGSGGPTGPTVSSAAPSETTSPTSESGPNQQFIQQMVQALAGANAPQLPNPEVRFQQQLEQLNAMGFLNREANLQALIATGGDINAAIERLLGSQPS

T2 sequence (Q9UHD9 whole entry, the tested form may be a part): as the sequence (Q9UHD9 whole entry P506T) above, with T506P counted along it
T3 sequence (Q9UHD9 whole entry P525S): as the sequence (Q9UHD9 whole entry P506T) above, with T506P, P525S counted along it
T4 sequence (Q9UHD9 whole entry P497S): as the sequence (Q9UHD9 whole entry P506T) above, with P497S, T506P counted along it
T1 sequence (Q9UHD9 whole entry P497H): as the sequence (Q9UHD9 whole entry P506T) above, with P497H, T506P counted along it
T5 sequence (Q9UHD9 whole entry P509S): as the sequence (Q9UHD9 whole entry P506T) above, with T506P, P509S counted along it

binding result [1]: binds | binding result [2]: binds | binding result [3]: binds | binding result [4]: binds | binding result [5]: binds | binding result [6]: binds
B1: HIS-tagged human S5a protein (natural protein, UniProt P55036 1-377, looked up)
chain: MVLESTMVCVDNSEYMRNGDFLPTRLQAQQDAVNIVCHSKTRSNPENNVGLITLANDCEVLTTLTPDTGRILSKLHTVQPKGKITFCTGIRVAHLALKHRQGKNHKMRIIAFVGSPVEDNEKDLVKLAKRLKKEKVNVDIINFGEEEVNTEKLTAFVNTLNGKDGTGSHLVTVPPGPSLADALISSPILAGEGGAMLGLGASDFEFGVDPSADPELALALRVSMEEQRQRQEEEARRAAAASAAEAGIATTGTEDSDDALLKMTISQQEFGRTGLPDLSSMTEEEQIAYAMQMSLQGAEFGQAESADIDASSAMDTSEPAKEEDDYDVMQDPEFLQSVLENLPGVDPNNEAIRNAMGSLASQATKDGKKDKKEEDKK
notes: S5a subunit of the 19S cap of the proteasome, human, entire open reading frame (377 aa); cloned in pET-21a; also called His-S5a; HIS-S5a; source: E. coli BL21(DE3), purified (Ni-NTA agarose)
